Legend:
[1] = target: IL-11 protein (UniProt P20809); assay: ELISA, purchased IL-11 antibody (Abcam, ab130083) on IL-11, positive control
[2] = target: IL-11-Fc protein (UniProt P20809); assay: competition ELISA: IL-11R-His coated, IL-11-Fc co-incubated with a concentration gradient of the antibody, detection with HRP goat anti-IgG-Fc; blocked partner IL-11R-His
Sequence of IL-11-Fc protein (P20809 22-199 limits assumed): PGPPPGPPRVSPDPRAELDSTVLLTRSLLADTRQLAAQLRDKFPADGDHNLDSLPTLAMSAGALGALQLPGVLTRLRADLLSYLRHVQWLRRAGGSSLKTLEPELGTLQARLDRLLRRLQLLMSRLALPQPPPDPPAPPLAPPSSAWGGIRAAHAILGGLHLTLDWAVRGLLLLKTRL

Sequence of IL-11 protein (P20809 22-199 limits assumed): as above

6D9A1 (Abcam, ab130083) (antibody)
OD(450 nm) value [1]: 3.62 | IC50 (read off the curve) [2]: 1 µg/mL
